Test results as given in the DeepSol protein solubility set.

Assay: soluble on expression in E. coli; label from the status in PepcDB or PDB records

| Sequence | soluble on expression in E. coli |
| --- | --- |
| TTVNETTPIAPAKVLPDAQTVTSVRHWTDTLFSFRVTRPQTLRFRSGEFVMIGLLDDNGKPIMRAYSIASPAWDEELEFYSIKVPDGPLTSRLQHIKVGEQIILRPKPVGTLVIDALLPGKRLWFLATGTGIAPFASLMREPEAYEKFDEVIMMHACRTVAELEYGRQLVEALQEDPLIGELVEGKLKYYPTTTREEFHHMGRITDNLASGKVFEDLGIAPMNPETDRAMVCGSLAFNVDVMKVLESYGLREGANSEPREFVVEKAFVGEGI | soluble |
| MSNYSVSLVGPAPWGFRLQGGKDFNMPLTISSLKDGGKAAQANVRIGDVVLSIDGINAQGMTHLEAQNKIKGCTGSLNMTLQRASAAPKPEPVPVQKGEPKEVVKPVPITSPAVSKVTSTNNMAYNKAPRPFGSVSSPKVTSIPSPSSAFTPAHATTSSHASPSPVAAVTPPLFAASGLHANANLSADQSPSALSAGKTAVNVPRQPTVTSVCSETSQELAEGQRRGSQGDSKQQNGPPRKHIVERYTEFYHVPTHSDASKKRLIEDTEDWRPRTGTTQSRSFRILAQITGTEHLKESEADNTKKANNSQEPSPQLASSVASTRSMPESLDSPTSGRPGVTSLTTAAAFKPVGSTGVIKSPSWQRPNQGVPSTGRISNSAAYSGSVAPANSALGQTQPSDQDTLVQRAEHIPAGKRTPMCAHCNQVIRGPFLVALGKSWHPEEFNCAHCKNTMAYIGFVEEKGALYCELCYEKFFAPECGRCQRKILGEVINALKQTWHVSCFVCVACGKPIRNNVFHLEDGEPYCETDYYALFGTICHGCEFPIEAGDMFLEALGYTWHDTCFVCSVCCESLEGQTFFSKKDKPLCKKHAHSVNF | soluble |
| MGSDKIHHHHHHMLSVNRIVISAAGGGKTTRVVDQALACEQGQGATALITYTRNNVREIQLKAYERTRTIPSHVEVISWYSFLLRELARPYRSAMHASRVDGIHWVEGKSVPYIPEARTSGHYFFDGSRIYSDKIAKFVCECDRRSGGAIMRRLKQRFRHIIIDEIQDMAGYDLDLLELILKAGVPVTFVGDHRQATFATNNASKNKVFSGPAIIKKFELWKKQGLVEIEYETHTHRCNQTIADLGDGFFPNEPKTVSRNDKVTGHDGVFLVSSADVGEYMKRFAPQVLRYSAATNCDLDEAMNFGESKGLTFERVLIYPHGPARKWLASGDIRHVEKSLTKMYVAVTRARYSVAFVHDGKICSVAATKWVPG | not soluble |
| ATDVAARGLDISGVTHVYNYDIPQDPESYVHRIGRTGRAGKEGMAITFVQPREMGYLRIVEETTKKRMQPLQAPTWDEAFAGQLRVATEKIQEAITEENLADYKTFANELLEKYDATDIAAAMLKMLAKEPDKTPVHITEERPLPSRGGGGYKGK | not soluble |
| MSLKNGKIANIGLINYVDLGKIIIKAKEEGKTAVDFKAIEDIMPWDEFVSSINETSEITRPKEYNSLDLIAEKYSTLRKYTPRLLKILEFKASKKGEPVLKAMETIKELNANTKRKVPKGAPLDFVTNQWEKYVYDQEGNIDKKYYELAVFTELKNAVRSGDISIVGSKQHKPFEEYLITDSEWEKYKAENTDFKVSLDAEEYLKARLDLLNNKLKYVSDNIKKLKGVSIEDNKFVLSRLEKAVPDEAKELATKLYSLIPRVNLSDIIIDISKFTAFDNNLIHASTNKEPKDNERSCITASLMALGTNIGLKKMEQAVKGISYKQMSNVVNWRMSDDNMEKAMAAITNYHHRQPYAVHWGDGSTSSSDGVRVKSAVEALNASYNPHYGLEKGVTMYSAVSDQYSRFGVGIINTNSRDAIHIIDILLNHRTELEIEEHYTDTAGYTDQVFGLTHLLGFRFAPRLRDISDCKLYCIEGKEDFRNIQSVIKGKINTKIIKENYDDILKPVSSIKEGKVSGSLIMGKLGSYSRQNSLAKALTELGKIEKTIFILDYLSDEDFRRKIQIGLNKGEAMNALARAIFFGKYGMFHEKDIQGQLQRATALSIIINSITLWNTMYLPKAVEKLKEKEGVDESLLRHVSPLGWEHINFIGQYNLDDSSDYNLIDNMRPLREILQEGHHHHHH | not soluble |
| MTEKVSRFPGVFPLIVIGVPGSVDKTHKKLAFAPNLNRWRDIDVEKYFKVFEVYLENDANLAALAEMMRNKHFGDRKNIVYILVREGIGGGIIIEGKLYKGSFNAAGEIGHMKMYDRGPCFCGRVGCWEANTSISHCVRQYEKKKPLPGNTMYEKFETLCRIYEEDPLAKEVLDEFTGILIDGIVNLVNILSPEIVIVGGEGVFLPESVFEVIVSETRRQVHPMDKEVSVEKGSLSNKEVVLEGTSILSSMMISERLV | soluble |
| MQEIIFIDGGSLPTPEGFTREWVKAAAESRTEDQKLFSLVSDAFQRKIDAGVHVPTYPQFRDMIGQFLDIIRDEKNCYEPYVLKEENAKILELEIIDEVAKQYRERTGKTLEVRVCVAGPTDLYLQAFGATAFSDAYHIMALNIENFIKQAFKAAKNFKIKVIALDEPSLGMNDKIQFSDLDIVSALTLASTYARKQGADVEIHLHSPLKYKLICETPINVMGFEYAATPSYIDLMDKKILEDSNTYIRLGVSRTDISSLIGMVNETYGVNAWKEKEYMQKIVTELETPDIIQKRLEKACSILGDRIKYASPDCGLAFWPDQELAFRLLENTAKGINAFNAEMKDLLEHHHHHH | not soluble |
| MKKVLILGGGIAGVAAAIAFRKRGFEVEVVSDREFLFIYPIAIWIPVGTERFRNVAFPLEKVARKHGFSLTLDTVTAINASRDSVTLEKAGQRSDFDFLVIALGSDKMKHEGIEHTLSICGAPEHSIRLKEKIDALIERGHGKIAFGFGGNPKDPSAVRGGPGFELFFNLHHKLTKLGIRDNFEMTFFAPMAQPGAKMGQKALDMMAVMFKAKNFRQRYGKKITRFEVDGVVFEDGSKLESDLTMFIPAGSGHSVFRNSDLPLSEAGFVKIDDFCRVVGVDGWYAVGDSAALEGPEWKAKQGHIAEFMADCAANNCLAEHFGHQEPMRGYQEHLNVLCVMDTGDGAGFVYRTGHSEMFIPMPVVGHWLKKAWGYYYKLSKMKYIPRIPGMLEHHHHHH | soluble |
| RKDMEMNINFNMSYQKNKLLSLSGEYNGMHMTASDITPIGSLYGAGQNGGDNNVVYQIVGQPLGVFYLPHCKGLKENELGGYSYDIEDLNDDGEIDFSDGGDRYIAGQATPKVTIGSNISFRYKSFDIAMQINGAFGHKIFNGTGLAYTNMSIFPDYNVLKGAPEKNIIDQNVSDYWLEKGDYVNIEHITIGYNIPMKSKAVKSLRLSAGISNLATITGYSGLTPMINSYVVSNTLGIDDKRTYPLYRTYSLGLSIQF | not soluble |
| MAHHHHHHMFSPVYEDVSGLFGHPMPISGFGPSTELQFPQTSYMTTTTNAPQTPTQQQQQQLAGRATVYSLVDASGVQLHRQAAPPQQIPMSSVPFGAFDGASIVPYEVFMQHQQQQQLAAAGKPTAVHAQDGVKYYLSSSTGAPVMASAGPAATTQANIMQMQQHGGTLYTLESNGTTTALTSTPPAGGLFSGAAAANGAPPSGEYPFYAAATGFLSSGPLGMAPATVGSASVTPYAIQGHMPSASPRARGAVNRSPAATIAGNQHHSNSGNNSSSASTRRENQATLHEM | not soluble |
| GLDTLDRDGDGSTADADCNDFAPTIHPGAAEATLDGVDSNCDGRDSGVAEVVETFKNPGTYSSPVINFKIASPPGPGTPIYGPPRDFSGYNKSYSLAIGKTSYYDPTTGTKWNDDTITPVSDGQDIWRGWTHTGKWSFFNGKAGDKITLSVQRDAQEASLKGAHPGFILFWRPEGGPLFWAGTQDLDEGQTALPADSDTVIGHVIVQHADWTLQGLPPKADHTAPAGVDTELYPMKPDSYTMYYVDSGYDADKYVASKKLIMHPTAFKGLALNDGTAGAFTKSITLPKTGYYMLYVANVLEVDDWSVDADGKLTTTGEVWEVPAKGCWVNITISKP | soluble |
| MSLTSQVSSTTEQADEPVVGEQRKPAGAKDVRRLDRVIIRFAGDSGDGMQLTGDRFTSETASFGNDLSTLPNFPAEIRAPAGTLPGVSSFQLHFADHDILTPGDAPNVLVAMNPAALKANVSDLPRGAEVIVNTDEFTKRAMQKVGYGTSPLEDGSLDGYSVHPVPLTTLTVEALKEFELSRKEAERSKNMFALGLLSWMYHRPTEGTEKFLTTKFAKKPAIAAANIAAFRAGWNFGETTEDFAVSYEVAPAQSAFPAGTYRNISGNLALSYGLIAASRQADLPLYLGSYPITPASDILHELSKHKNFGVRTFQAEDEIAGIGAALGAAFGGSLAVTTTSGPGVALKSETIGLAVSLELPLLVVDIQRGGPSTGLPTKTEQADLLQAMYGRNGEAPVPVVAPRTPADCFEAAIEAARIALTYRTPVFLLSDGYLANGSEPWRIPETDGLPDLRVRFAQGPNHTLDDGTEVFWPYKRDPGTLARPWAIPGTPGLEHRIGGIEKQDGTGNISYDPANHDFMVRTRQAKIDGIDVPDIEVDDPDGASALVLGWGSTYGPITAAVRRLRTAGESIAQAHLRHLNPFPSNLGAVLKGYDKVVIPEMNLGQLATLIRAKYLVDAHSYNQVNGMPFKAEQLATALKEAIDEGHHHHHH | not soluble |
| MKKIAIIGGGIIGMTLANYLDPQKFDITVYDEGLGQATKASAGIISPWLSKRRNKKWYQLAREGAALFPKLVKDFQLTEDIYRQSGTVILRPAAALADLAHLAEERKQTAPEIGEITMLSAVQTAKFLPLLKETPSLFISGGGRLDGPAYLNHLQKRAEAKGVTFCSQRAHFRQLNQGWEIVTNSEKKSVDFLALTPGPHLKELLTTLNLSVDIRPQKGQLLVFETPFTNSQQWPVAMLDGEADLIPFNQGKILLGATHENEQAWDLEETVSAFQQLTSGTAPFLKEAEQLFKQPMHYRVGTRAYTSDFAPFFGPLPEMPHLVVASGLGSSGLTTGPFIGYQLAEYFNTGAFKGELYQKPLSQYVKNNPSL | not soluble |
| MGSDKIHHHHHHEDDNIRPFGKDVEAGAPGVVSEIKVKNIPGGAVISYQLPDNPDIMYVRARYKVGQGKEMEARASVYANELTVNGFGDMNEHEVELSCVDRMENEGATTVAVVTPLKPSVLTTFESLEVNATFGGVYVNFKNPEKASLSIHVVTTDSLNQPYEAHVQYTQAEKGPFYVRGFKAEERMFDIYVVDRWGNSSDTLYNVLTPYEETRLNKKLFYPYILPNDVACNAWGGNLAYAWNDDYTPALFVHSPGGDTFPMWFTFDMGVTAKLSRYKFYHLFMEEHAFQRGNLKTWEVWGRTDTPPADGSWDGWTKLMDCESHKPSGLPVGQHTAEDWEYLQAGEDFEFPAEAPPVRYIRFKVLETWGGMDFIHFTEFTFWGNVISNN | not soluble |
| MIPQRIKELEAYKTEVTPASVRLSSNEFPYDFPEEIKQRALEELKKVPLNKYPDPEAKELKAVLADFFGVKEENLVLGNGSDELIYYLSIAIGELYIPVYIPVPTFPMYEISAKVLGRPLVKVQLDENFDIDLERSIELIEKEKPVLGYFAYPNNPTGNLFSRGKIEEIRNRGVFCVIDEAYYHYSGETFLEDALKREDTVVLRTLSKIGMASLRVGILIGKGEIVSEINKVRLPFNVTYPSQVMAKVLLTEGREFLMEKIQEVVKERERMYDEMKKIEGVEVFPSKANFLLFRTPYPAHEVYQELLKRDVLVRNVSYMEGLQKCLRVSVGKPEENNKFLEALEESIKSLSSSL | soluble |
| MRRYFGTDGVRGEAGKPPLTPEFVLKLGQAAGAYFLAQEKRPVVLLAKDTRESSDLLEAALAAGLMSQGVRVEHLGVLPTPGVAHLTKALKATAGAVISASHNPYQDNGIKFFGPTGEKLPDGAEEEIERLLLEDHPTRGIGTVGDFREAERMYLDFLLAHAPDLTGLKVGLDLAHGATYRIGPKLFQKAGAEVMAFFNTPDGRNINRGCGSTHPEALSRFVVELGLDLGIAFDGDGDRVQFIDRKGRLFHGDHVLYLAALAFGEKGVVGTVMSNMALEVALKERGLAFHRAAVGDRYVLEKLKETGLALGGEPSGHVIFLRHHTTGDGLLTALLTLKALKALGGDLADWYEALPLYPQVLLNVRVSDKAKVMADPRLGEAVREAEARLGGRGRVNVRPSGTEPVVRVMVEAEEGAEEVARELAERVRALSQEAQAV | soluble |
